Data as given in patent US20210002370A1.

Target: PD-L1 extracellular domain expressed in HEK293 cells (human) (UniProt Q9NZQ7)
Assay: gradient dilution ELISA on coated PD-L1, serum dilution 200

Chain of PD-L1 extracellular domain expressed in HEK293 cells (human) (Q9NZQ7 19-238): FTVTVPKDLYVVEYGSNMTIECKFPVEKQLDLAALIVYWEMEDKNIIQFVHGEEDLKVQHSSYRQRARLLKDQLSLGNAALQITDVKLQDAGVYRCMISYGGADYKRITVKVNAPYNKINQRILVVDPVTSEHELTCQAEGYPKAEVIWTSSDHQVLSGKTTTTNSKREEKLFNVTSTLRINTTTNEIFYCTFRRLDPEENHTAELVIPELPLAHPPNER

For Alpaca serum before immunization, which ELISA OD is on record?
The ELISA OD was 0.631 OD450 nm.
